Measurements as given in patent publication US10800847.

Legend:
Experiment in all cases: Luminex iBeads (#6), IVIg 1:4
[1] = molecular target: HLA-A*6801 (A68) single antigen on beads (human)
[2] = molecular target: HLA-A*3301 (A33) single antigen on beads (human)
[3] = molecular target: HLA-A*6601 (A66) single antigen on beads (human)
[4] = molecular target: HLA-A*3402 (A34) single antigen on beads (human)
[5] = molecular target: HLA-A*3303 (A33) single antigen on beads (human)
[6] = molecular target: HLA-A*4301 (A43) single antigen on beads (human)
[7] = molecular target: HLA-A*3601 (A36) single antigen on beads (human)
[8] = molecular target: HLA-A*3002 (A30) single antigen on beads (human)
[9] = molecular target: HLA-A*3201 (A32) single antigen on beads (human)

MFI [1]: 307 MFI
MFI [2]: 684 MFI
MFI [3]: 783 MFI
MFI [4]: 177 MFI
MFI [5]: 439 MFI
MFI [6]: 949 MFI
MFI [7]: 636 MFI
MFI [8]: 526 MFI
MFI [9]: 769 MFI
Substance: IVIg Sandoglobulin (Novartis, Basel, Switzerland) (antibody)
